Read-outs that look alike come from different tables or passages of the source. Some results are limits rather than exact numbers.

The target in assay [1] is dimAβ (dimeric Aβ variant: two Aβ40 units linked in one polypeptide chain through a flexible glycine-serine-rich linker) (UniProt P05067). Nature of the assay: ThT fluorescence aggregation kinetics; dimAβ at pH 5.6, concentrations down to 0.4 µM, 37 °C, 150 mM NaCl.
For assay [2] the target is unchanged. Nature of the assay: ThT fluorescence aggregation kinetics; dimAβ at pH 7.4, concentration series, 37 °C, 150 mM NaCl, 1 µM ThT, microplate; lag-free oligomerization phase above the critical oligomer concentration.
For assay [3] the target is unchanged. The assay is described as above. This is another data set of the same source.

Regarding “dimAβ (dimeric Aβ variant: two Aβ40 units linked in one polypeptide chain through a flexible glycine-serine-rich linker) (from UniProt P05067 672-711; P05067 672-711)”, in assay [1], the critical oligomer concentration (COC) at pH 5.6 is < 0.4 µM. Also, the critical oligomer concentration (COC) is 1 µM in assay [2] and 1.5 µM in assay [3].

The values are drawn from publication PMC8324842.
